Biological target: HLA-A*1101 (human)
Assay: competition of unlabeled peptide with 125I-labeled standard probe peptide for purified HLA-A*1101, gel filtration

- binding affinity ratio (IC50 of standard peptide / IC50 of test peptide) (ratio relative to standard peptide): 0.024
Binder: TMLCMCCK (modifications not checked) [HPV18 E7 60-67 peptide TMLCMCCK (SEQ ID NO: 41224)]

— patent US7026443
